Measured values published in patent US20040241778.

Key:
[1] = molecular target: IGFBP-3 (commercially available, upstate biotechnology), P17936
[2] = molecular target: IGFBP-5 (commercially available, upstate biotechnology), P24593
[3] = molecular target: IGFBP-5-FLAG protein (full-length IGFBP-5 with the FLAG tag of SEQ ID NO: 12 at the C-terminus), P24593
Chain of IGFBP-5-FLAG protein (full-length IGFBP-5 with the FLAG tag of SEQ ID NO: 12 at the C-terminus), P24593 (P24593 other isoform, or with tags, fused parts or gaps): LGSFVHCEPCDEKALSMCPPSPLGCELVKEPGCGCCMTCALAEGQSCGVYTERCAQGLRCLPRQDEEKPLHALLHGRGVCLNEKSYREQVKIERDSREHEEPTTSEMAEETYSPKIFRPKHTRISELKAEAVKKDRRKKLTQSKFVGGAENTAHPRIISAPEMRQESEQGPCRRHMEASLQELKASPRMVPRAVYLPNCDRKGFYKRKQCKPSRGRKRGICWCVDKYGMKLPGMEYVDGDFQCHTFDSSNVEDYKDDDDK

Chain of IGFBP-3 (commercially available, upstate biotechnology), P17936 (P17936 28-291): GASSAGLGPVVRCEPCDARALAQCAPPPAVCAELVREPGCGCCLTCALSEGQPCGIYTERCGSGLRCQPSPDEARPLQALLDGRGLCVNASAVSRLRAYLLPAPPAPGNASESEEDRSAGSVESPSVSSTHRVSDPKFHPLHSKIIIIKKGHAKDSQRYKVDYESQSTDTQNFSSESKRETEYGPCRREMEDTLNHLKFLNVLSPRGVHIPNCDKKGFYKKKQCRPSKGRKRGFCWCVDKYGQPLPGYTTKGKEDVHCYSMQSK
Chain of IGFBP-5 (commercially available, upstate biotechnology), P24593 (P24593 21-272): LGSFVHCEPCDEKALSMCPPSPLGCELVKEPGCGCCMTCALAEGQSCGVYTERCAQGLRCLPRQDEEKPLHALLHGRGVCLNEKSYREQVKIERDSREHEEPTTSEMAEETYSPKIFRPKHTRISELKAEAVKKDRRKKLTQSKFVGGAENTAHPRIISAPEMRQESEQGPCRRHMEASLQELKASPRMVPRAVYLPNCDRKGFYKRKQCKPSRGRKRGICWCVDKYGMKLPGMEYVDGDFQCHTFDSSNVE

B1: MD8S-FLAG protein (extracellular region of human MD8, amino acids 1 to 646 of SEQ ID NO: 2, with a C-terminal FLAG tag) (protein)
chain: IAPSRPWALMEQYEVVLPRRLPGPRVRRALPSHLGLHPERVSYVLGATGHNFTLHLRKNRDLLGSGYTETYTAANGSEVTEQPRGQDHCFYQGHVEGYPDSAASLSTCAGLRGFFQVGSDLHLIEPLDEGGEGGRHAVYQAEHLLQTAGTCGVSDDSLGSLLGPRTAAVFRPRPGDSLPSRETRYVELYVVVDNAEFQMLGSEAAVRHRVLEVVNHVDKLYQKLNFRVVLVGLEIWNSQDRFHVSPDPSVTLENLLTWQARQRTRRHLHDNVQLITGVDFTGTTVGFARVSAMCSHSSGAVNQDHSKNPVGVACTMAHEMGHNLGMDHDENVQGCRCQERFEAGRCIMAGSIGSSFPRMFSDCSQAYLESFLERPQSVCLANAPDLSHLVGGPVCGNLFVERGEQCDCGPPEDCRNRCCNSTTCQLAEGAQCAHGTCCQECKVKPAGELCRPKKDMCDLEEFCDGRHPECPEDAFQENGTPCSGGYCYNGACPTLAQQCQAFWGPGGQAAEESCFSYDILPGCKASRYRADMCGVLQCKGGQQPLGRAICIVDVCHALTTEDGTAYEPVPEGTRCGPEKVCWKGRCQDLHVYRSSNCSAQCHNHGVCNHKQECHCHAGWAPPHCAKLLTEDYKDDDDK
- activity of digesting IGFBP-3 (overnight reaction at 37 C, SDS-PAGE and western blot) [1]: a new band of 25 kDa was detected in the case of IGFBP-3
- activity of digesting IGFBP-5 (overnight reaction at 37 C, SDS-PAGE and western blot) [2]: new plural bands within the range of 12 to 25 kDa were detected in the case of IGFBP-5
- activity of digesting recombinant IGFBP-5 (overnight reaction at 37 C, SDS-PAGE and western blot with biotinylated M2 antibody) [3]: recombinant IGFBP-5, which was detected in the control without the MD8S enzyme solution, was made to disappear by adding the MD8S enzyme solution
